PMC9100651 (2022)

Biological target: GABARAP (Homo sapiens, UniProt O95166)
Assay: MST, SPR

GABARAP, sequence (O95166 1-116): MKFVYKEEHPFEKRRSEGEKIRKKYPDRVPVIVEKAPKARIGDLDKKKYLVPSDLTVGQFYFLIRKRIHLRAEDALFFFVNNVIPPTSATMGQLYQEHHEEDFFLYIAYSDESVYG

Kd: ~3 µM
Binder: DATYTWEHLAWP [K1 peptide]
